Data: patent US11883498B2, “Luteinizing hormone-releasing hormone receptor (LHRH-R) conjugates and uses thereof” (priority 2016, dated 2024)
Read-outs that look alike come from different tables or passages of the source.

Tests used:
[1] = system: MDA-MB231 tumor xenografts; assay: In vivo fluorescence imaging and biodistribution, MDA-MB231 xenografts
Protocol: (§1) In vivo fluorescence imaging and biodistribution. For the development of subcutaneous tumor xenografts, MDA-MB231, OVCAR-3 and HEC-1B 5×10^6 cells in 0.2 ml sterile PBS were injected subcutaneously in the right hind flank of the female nu/nu mice. Tumor imaging was initiated once the tumor volume reached between 200 mm^3 to 300 mm^3. Each tumor-bearing mice was intravenously injected (via tail vein) with the 10 nano moles of fluorescence dye conjugate either in the presence or absence of a 100-fold excess of the unlabeled conjugate. Animals were euthanized two hours post injection using CO2 and the images were acquired using Caliper IVIS Luminal II. After performing the whole body image, the organs of interest were harvested and imaged to inspect the accumulation of the fluorescence in these organs. The image acquisition parameters were as follows: i) lamp level-high, ii) excitation-745 nm, iii) emission-ICG, iv) binning (M) 4M, (v) f-stop-4, (vi) FOV-12.5, (vii) acquisition time, 1 s. All final conjugates were purified by HPLC prior to its use in in-vitro and in vivo studies.
To determine the efficiency of the conjugates to target the receptor positive tumor in vivo female nu/nu athymic nude mice were subcutaneously implanted with either MCF7, MDA-MB231, OVCAR3 or HEC-1B. Once the tumor reached an appropriate volume the mice were injected intravenously with the dye conjugates (10 nmoles) either in the presence or absence of the excess of the unlabeled targeting molecule. Mice were imaged 2 h post injection to investigate the accumulation of the dye conjugates in tumor and other vital organs.
(§2) Mice were treated intravenously with the dye conjugate either in the presence or absence of 100-fold excess of the unlabeled conjugates. […] All the images were acquired 2 h post injection. List of organs from top to bottom: Tumor, heart, lungs, pancreas, spleen, muscle, skin, small intestine, large intestine, stomach, liver, and kidney.
as §2, with “Tumor, brain,” for “Tumor,”, “stomach,” for “pancreas, spleen, muscle, skin,”, “muscle, pancreas, spleen,” for “stomach,”
Time course study. The effectiveness of JL-L3-S0456 to accumulate in the receptor-positive tumors were further inspected by injection the dye conjugate in ovarian cancer and endometrial xenografts. […] To investigate the retention time of the dye conjugate in the tumor a time-course study was performed. Mice were injected with 10 nmoles of the dye conjugates and imaged at 2 h, 8 h, and 12 h.

[2] = system: HEC-1B tumor xenografts; conditions: endometrial xenografts, 2 h post injection
Protocol: as §1
(§3) To determine the efficiency of the conjugates to target the receptor positive tumor in vivo female nu/nu athymic nude mice were subcutaneously implanted with either MCF7, MDA-MB231, OVCAR3 or HEC-1B. […]

[3] = system: OVCAR3 tumor xenografts; conditions: ovarian cancer xenografts, 2 h post injection
Protocol: as §1, §3

[4] = system: MDA-MB231 cells; format: cell-based, human; conditions: 2 h exposure + 66 h
Protocol: (§4) In vitro determination of cell viability. MDA-MB231 and SKVO3 cells were seeded at a concentration of 10,000 cells per well on a 24 well plate and allowed to grow in monolayers. […] After incubating for 2 h at 37° C., cells were rinsed three times with fresh medium and then incubated in 0.5 ml fresh medium for an additional 66 h at 37° C. Sent medium was then replaced with 0.5 ml of medium containing ^3H-thymidine and incubated for additional 4 h. Cells were then again washed three times with the fresh medium and then incubated with 0.5 ml of 2.5% trichloroacetic acid for 10 min at room temperature. After removing the trichloroacetic acid, cells were dissolved in 0.25 N NaOH. Cell viability was determined by counting the incorporation of ^3H-thymidine in cells using scintillation counter (Packard, Packard Instrument Company). The IC50 value was derived from a plot of the percent of ^3H-thymidine incorporation versus log concentration using Graph Pad Prism 4.
(§5) In vitro cytotoxicity of tubulysin B hydrazide conjugate: To inspect the killing efficiency of the therapeutic conjugate, MDA-MB231 and SKOV3 cancer cells were incubated with various concentrations of JL-L3-TubBH either in the presence or absence of excess JL-L3, for 2 h at 37° C. After washing off the excess conjugate, the cells were incubated in fresh media for an additional 66 h followed by incubation with media containing ^3H-thymidine to assess cell viability. Radioactivity was counted using PerkinElmer's scintillation counter. The same procedure was repeated after exposing the cells to the free tubulysin B hydrazide.

[5] = system: SKOV3 cells; format: cell-based, human; conditions: receptor negative cell line, 2 h exposure + 66 h
Protocol: as §4, §5

[6] = system: MDA-MB-231 tumors; assay: In vivo efficacy of tubulysin B hydrazide conjugate, LHRH-R positive tumors; design: species or system mice
Protocol: (§6) Tumor model and therapy: 5-6 weeks old female nu/nu athymic nude mice were subcutaneously injected with 5.0×10^6 breast cancer cells MDA-MB231 and ovarian cancer cells SKVO3 into their shoulders. Tumors were measured in two perpendicular directions 3 times per week with Vernier calipers, and their volumes were calculated as 0.5×L×W^2, where L is the longest axis (in millimeters), and W is the axis perpendicular to L (in millimeters). Treatment was initiated once the tumor volume reached ˜100 mm^3. Dosing solutions were prepared in sterile saline and injected intravenously. […] Mice were administered with the test agents 3 times per week for 3 weeks and as a measure of gross toxicity mice were simultaneously weighed at each dosing.
In vivo efficacy of tubulysin B hydrazide conjugate: To investigate the efficacy of JL tubulysin conjugate nu/nu athymic nude bearing LHRH-R positive tumors (MDA-MB-231, breast cancer) were randomly divided into three groups: saline control, targeted, and competition and were then treated with test agents 3 days per week for 3 weeks. LHRH-R positive (MDA-MB-231) and negative (SKOV3) cancer cells were s.c implanted in to nu/nu athymic mice and treatment was initiated once the tumor volume reached ˜100 mm^3. Mice were randomized into several groups with 5 mice in each group. […] All the test agents were administered intravenously through tail vein. The mice in control and competition group were euthanized after the last doing whereas the mice in treatment group were continuously monitored for recurrence of tumor and weight loss. […] (FIG. 22A, The dotted vertical line indicates the day of final dosing (day 36)) Without intending to be bound by theory, this further confirmed that the efficacy of targeted tubulysin B hydrazide conjugate is receptor mediated. Moreover, to comprehensively test the anti-tumor efficacy of targeted conjugate (JL-L3-TubBH), mice bearing LHRH-R negative tumors (SKOV3, ovarian cancer) were divided into similar groups as MDA-MB-231 tumor bearing mice and a similar treatment regimen was followed. […] (FIGS. 22B & 22D)
After completion of the treatment the mice in MDA-MB-231 targeted group were monitored and kept on regular chow diet for next five weeks. During this time period the tumor volume and weight was monitored three time a week. (FIG. 23) Mice were treated with the LHRH-R targeted tubulysin B hydrazide conjugate (JR-L3-TubBH) for thrice a week for 3 weeks (n=5). After completion of the study tumor volume and weight of mice was continuously monitored till 75 days post tumor implantation. The dotted vertical line specifies the last day of dosing.

[7] = system: SKOV3 tumors; assay: In vivo efficacy of tubulysin B hydrazide conjugate, LHRH-R negative tumors; design: species or system mice; conditions: 2 μmol/kg i.v., 3 times per week for 3 weeks
Protocol: as §6
In vivo efficacy of tubulysin B hydrazide conjugate: To investigate the efficacy of JL tubulysin conjugate nu/nu athymic nude bearing LHRH-R positive tumors (MDA-MB-231, breast cancer) were randomly divided into three groups: saline control, targeted, and competition and were then treated with test agents 3 days per week for 3 weeks. […] The mice in control and competition group were euthanized after the last doing whereas the mice in treatment group were continuously monitored for recurrence of tumor and weight loss. […]

[8] = 10 nmoles i.v., 2 h post injection
[9] = 2 μmol/kg i.v., 3 times per week for 3 weeks
[10] = monitored five weeks after treatment, till 75 days post tumor implantation

Structure (SMILES) | Kidney fluorescence [1, 8] | Liver fluorescence [1, 8] | Tumor uptake [1, 8] | Competition of tumor uptake by unlabeled JL-L3 ([1]; 100-fold excess of unlabeled conjugate, 2 h post injection) | Tumor fluorescence intensity at 12 h compared with 2 h post injection ([1]; time course, 10 nmoles, imaged at 2 h, 8 h, 12 h) | Tumor uptake [2] | Tumor uptake [3] | IC50 ([4]; 3H-thymidine incorporation, read-out: IC50) | IC50 ([4]; excess JL-L3 (100-fold), read-out: IC50 in the presence of an excess of competition ligand) | IC50 [5] | Anti-tumor effect (tumor volume), competition group ([6]; 2 μmol/kg i.v. with 100-fold excess of JL-L3, 3 times per week for 3 weeks) | Anti-tumor effect (tumor volume) [6, 9] | Body weight loss (gross toxicity) [6, 9] | Tumor growth after end of treatment [6, 10] | Weight loss after end of treatment [6, 10] | Body weight loss (gross toxicity) [7] | Anti-tumor effect (tumor volume) ([7]; receptor negative tumors)
Cc1c(-c2cccc(CCC(=O)NCCCCCCCC(=O)N[C@H](CCC(=O)NC[C@H](O)[C@@H](O)[C@H](O)[C@H](O)CO)C(=O)N[C@H](CCC(=O)O)C(=O)N[C@H](CCC(=O)NC[C@H](O)[C@@H](O)[C@H](O)[C@H](O)CO)C(=O)N[C@H](CSC3CC(=O)N(CCNC(=O)CCc4ccc(OC5=C(/C=C/C6=[N+](CCCCS(=O)(=O)O)c7ccc(S(=O)(=O)[O-])cc7C6(C)C)CCC/C5=C\C=C5\N(CCCCS(=O)(=O)O)c6ccc(S(=O)(=O)O)cc6C5(C)C)cc4)C3=O)C(=O)O)c2)c(=O)n(C[C@@H](N)c2ccccc2)c(=O)n1Cc1c(F)cccc1F (some centres unmarked) [JL-L3-S0456] | high fluorescence | none or very minimal fluorescence | accumulated in the breast cancer tumor | able to compete the tumor uptake | only a very slight decrease in the intensity | receptor-mediated uptake | receptor-mediated uptake |  |  |  |  |  |  |  |  |  | 
CCCC(=O)OCN(C(=O)[C@@H](NC(=O)C1CCCCN1C)C(C)CC)[C@H](C[C@@H](OC(C)=O)c1nc(C(=O)N[C@@H](Cc2ccc(O)cc2)C[C@H](C)C(=O)NNC(=O)OCCSSC[C@@H](NC(=O)[C@@H](CCC(=O)NC[C@H](O)[C@@H](O)[C@H](O)[C@H](O)CO)NC(=O)[C@@H](CCC(=O)O)NC(=O)[C@@H](CCC(=O)NC[C@H](O)[C@@H](O)[C@H](O)[C@H](O)CO)NC(=O)CCCCCCCNC(=O)CCc2cccc(-c3c(C)n(Cc4c(F)cccc4F)c(=O)n(C[C@@H](N)c4ccccc4)c3=O)c2)C(=O)O)cs1)C(C)C (some centres unmarked) [JL-L3-TubBH] |  |  |  |  |  |  |  | 26 nM | 382 nM | 608 nM | did not show any decline in tumor growth | complete elimination of the tumor | None of the mice either bearing MDA-MB-231 or SKVO3 experiences significant weight loss | None of the mice showed any indication of tumor growth and weight loss | None of the mice showed any indication of tumor growth and weight loss | None of the mice either bearing MDA-MB-231 or SKVO3 experiences significant weight loss | no reduction in tumor volume
